Reference: paper PMC13544220, “Glycemic and bodyweight effects of GIPR coding variation reflect differences in surface expression and intrinsic functional impairment” (Science Advances, 2026)

How the values were obtained:
Type in all cases: cell-based, human
[1] = tested on: wild-type and variant SNAP-GIPR; assay: Constitutive and agonist-mediated internalization, reversible SNAP-tag labelling, AD293 cells; set-up: key to Internalisation, Vehicle / Internalisation, +GIP / Internalisation, GIP-only: % internalization: residual fluorescence after Mesna vs pre-Mesna; Surface expression: unit not given here; conditions: Mean
In short: (§1)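 Percentage internalization calculated as specific SNAP fluorescence remaining after 10 min Mesna exposure, relative to pre-Mesna signal, imaged in TNE buffer (pH 8.6).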

[2] = tested on: wild-type and variant SNAP-GIPR; assay: Single-concentration GIP cAMP response by HTRF in AD293 cells; conditions: Fig S3F, HTRF, mean;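 note: ratio to experiment-wide average response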
Protocol: All variants were tested in parallel on each occasion to control for transfection efficiency differences between experiments.

[3] = tested on: wild-type and variant SNAP-GIPR in Gipr-/- mouse islets; assay: Surface SNAP-GIPR expression in pancreatic islets; conditions: Fig 6B
Protocol: Islets were purified from Gipr^−/− mice as described in the “Islet isolation and culture” section. Islets were transduced with adenoviral wild-type or variant SNAP-tagged GIPR constructs (VectorBuilder) per the manufacturer’s instructions. All variants were tested in parallel on each occasion to control for transduction efficiency. Twenty-four hours posttransduction, whole, intact islets were labeled with SNAP-Surface Alexa Fluor 647 for 15 min at 37°C. Following labeling, the islets were placed in a drop of PBS in the center of a glass-bottom MatTek dish and imaged on a Zeiss LSM 780 inverted confocal microscope fitted with a 63X/1.4 NA oil immersion objective. Receptor surface levels were quantified in Fiji using a macro using full width at half maximum (FWHM) designed by the Facility for Imaging and Light Microscopy (FILM) at Imperial College London and expressed relative to wild-type GIPR. In additional experiments, islets transduced as above and labeled with SNAP-Surface-647 were fixed in 4% paraformaldehyde, permeabilized in 0.5% (v/v) Triton X-100 in PBS (15 min), washed once with PBS and incubated in blocking buffer (PBS and 1% BSA) for 1 hour, and incubated overnight at 4°C in primary antibodies against insulin (1:50; Dako IR002, Agilent Technologies) and glucagon (1:500; G2654, Sigma-Aldrich) in blocking buffer.

[4] = tested on: wild-type and variant SNAP-GIPR; assay: Constitutive and agonist-mediated internalization, reversible SNAP-tag labelling, INS-1 cells; set-up: key to Internalisation, GIP-only / Internalisation, Vehicle / Internalisation, +GIP: % internalization: residual fluorescence after Mesna vs pre-Mesna; conditions: Mean
In short: as §1

[5] = tested on: wild-type and variant SNAP-GIPR; assay: cADDis cAMP imaging in AD293 cells, ensemble, expression-matched and per decile; conditions: Fig S3F, cADDis, mean;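 note: Ensemble cells as % of IBMX/FSK response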
In short: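 AD293 cells reverse-transfected with wild-type or variant SNAP-GIPR plus cADDis Green Up sensor, variants run in parallel. After 24 h, surface receptor labelled with SNAP-Surface Alexa Fluor 647 (500 nM); single-cell cADDis fluorescence imaged at 37 °C in KRBH, 6 mM glucose, 0.1% BSA. Responses given ensemble, expression-matched by wild-type deciles, or per own decile.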

B1: WT (protein, UniProt P48546 22-466, looked up)
Gastric inhibitory …: RAETGSKGQTAGELYQRWERYRRECQETLAAAEPPSGLACNGSFDMYVCWDYAAPNATARASCPWYLPWHHHVAAGFVLRQCGSDGQWGLWRDHTQCENPEKNEAFLDQRLILERLQVMYTVGYSLSLATLLLALLILSLFRRLHCTRNYIHINLFTSFMLRAAAILSRDRLLPRPGPYLGDQALALWNQALAACRTAQIVTQYCVGANYTWLLVEGVYLHSLLVLVGGSEEGHFRYYLLLGWGAPALFVIPWVIVRYLYENTQCWERNEVKAIWWIIRTPILMTILINFLIFIRILGILLSKLRTRQMRCRDYRLRLARSTLTLVPLLGVHEVVFAPVTEEQARGALRFAKLGFEIFLSSFQGFLVSVLYCFINKEVQSEIRRGWHHCRLRRSLGEEQRQLPERAFRALPSGSGPGEVPTSRGLSSGTLPGPGNEASRELESYC
- +GIP internalisation (100 nM) ([1]; Fig 4E, GIP 100 nM): 0.9729
- GIP-specific internalisation (100 nM) ([1]; Fig 4E, GIP 100 nM): 0.2717
- Constitutive internalisation (100 nM) ([1]; Fig 4E): 0.7012
- Surface expression ([1]; Fig 4E): 1.75
- Internalisation, +GIP ([1]; Fig S4C, AD293): 55.4256
- Internalisation, GIP-only ([1]; Fig S4C, AD293): 15.538
- Internalisation, Vehicle ([1]; Fig S4C, AD293): 39.8877
- AD293 100 pM HTRF ([2]; AD293, 100 pM): 1.584
- AD293 100 nM HTRF ([2]; AD293, 100 nM): 1.495
- Surface SNAP-GIPR expression in pancreatic islets ([3]; replicate 1): 1.958
- Surface SNAP-GIPR expression in pancreatic islets ([3]; replicate 2): 2.33
- Surface SNAP-GIPR expression in pancreatic islets ([3]; replicate 3): 2.173
- Surface SNAP-GIPR expression in pancreatic islets ([3]; replicate 4): 3.278
- Surface SNAP-GIPR expression in pancreatic islets ([3]; replicate 5): 3.132
- +GIP internalisation (100 nM) ([4]; Fig 4G, GIP 100 nM): 0.7446
- GIP-specific internalisation (100 nM) ([4]; Fig 4G, GIP 100 nM): 0.2047
- Constitutive internalisation (100 nM) ([4]; Fig 4G): 0.5399
- Internalisation, +GIP ([4]; Fig S4C, INS-1): 51.1244
- Internalisation, GIP-only ([4]; Fig S4C, INS-1): 14.2697
- Internalisation, Vehicle ([4]; Fig S4C, INS-1): 36.8547
- AD293 100 pM cADDis ([5]; AD293, 100 pM): 34.2953
- AD293 100 nM cADDis ([5]; AD293, 100 nM): 38.14
